From article PMC10216903, “Implication of the Transmembrane Domain in the Interleukin 10 Receptor Platform Oligomerisation” (Cells, 2023)

B1: IL-10Rα, full-length subunit of the interleukin 10 receptor (receptor, UniProt Q61727 17-575, looked up)
chain: LEFIAYGTELPSPSYVWFEARFFQHILHWKPIPNQSESTYYEVALKQYGNSTWNDIHICRKAQALSCDLTTFTLDLYHRSYGYRARVRAVDNSQYSNWTTTETRFTVDEVILTVDSVTLKAMDGIIYGTIHPPRPTITPAGDEYEQVFKDLRVYKISIRKFSELKNATKRVKQETFTLTVPIGVRKFCVKVLPRLESRINKAEWSEEQCLLITTEQYFTVTNLSILVISMLLFCGILVCLVLQWYIRHPGKLPTVLVFKKPHDFFPANPLCPETPDAIHIVDLEVFPKVSLELRDSVLHGSTDSGFGSGKPSLQTEESQFLLPGSHPQIQGTLGKEESPGLQATCGDNTDSGICLQEPGLHSSMGPAWKQQLGYTHQDQDDSDVNLVQNSPGQPKYTQDASALGHVCLLEPKAPEEKDQVMVTFQGYQKQTRWKAEAAGPAECLDEEIPLTDAFDPELGVHLQDDLAWPPPALAAGYLKQESQGMASAPPGTPSRQWNQLTEEWSLLGVVSCEDLSIESWRFAHKLDPLDCGAAPGGLLDSLGSNLVTLPLISSLQVEE
notes: Interleukin 10 receptor subunit alpha, full length; One tag per copy: Rluc fusion as donor, eYFP fusion as acceptor (plasmids pRL-CMV and pEYFP-N1); also called IL-10Rα_FL; full-length IL-10Rα; source: HEK293, transfected, in living cells
B2: IL-10Rβ, full-length subunit of the interleukin 10 receptor (receptor, UniProt Q61190 20-349, looked up)
chain: MIPPPEKVRMNSVNFKNILQWEVPAFPKTNLTFTAQYESYRSFQDHCKRTASTQCDFSHLSKYGDYTVRVRAELADEHSEWVNVTFCPVEDTIIGPPEMQIESLAESLHLRFSAPQIENEPETWTLKNIYDSWAYRVQYWKNGTNEKFQVVSPYDSEVLRNLEPWTTYCIQVQGFLLDQNRTGEWSEPICERTGNDEITPSWIVAIILIVSVLVVFLFLLGCFVVLWLIYKKTKHTFRSGTSLPQHLKEFLGHPHHSTFLLFSFPPPEEAEVFDKLSIISEESEGSKQSPEDNCASEPPSDPGPRELESKDEAPSPPHDDPKLLTSTSEV
notes: Interleukin 10 receptor subunit beta, full length; One tag per copy: Rluc fusion as donor, eYFP fusion as acceptor; also called IL-10Rβ_FL; full-length IL-10Rβ; source: HEK293, transfected, in living cells

Columns and labels:
[1] = molecular target: IL-10Rα, full-length subunit of the interleukin 10 receptor (UniProt Q61727); test: FRET or BRET; BRET saturation assay in living HEK293 cells; full-length Rluc-tagged receptor (plasmid constant, 0.75 ng/mL) with increasing eYFP-tagged TM sequence plasmid; HBSS, coelenterazine H 5 µM, 37 °C
[2] = molecular target: IL-10Rβ, full-length subunit of the interleukin 10 receptor (UniProt Q61190); test: as above
TM sequence of IL-10Rα = test: FRET or BRET; BRET saturation assay in living HEK293 cells; TM sequence fused to Rluc (plasmid constant, 0.75 ng/mL) with increasing eYFP-fused TM sequence plasmid, wild type or mutant; HBSS, coelenterazine H 5 µM, 37 °C
TM sequence of IL-10Rβ = test: as above
[3] = molecular target: B2; test: FRET or BRET; BRET saturation assay in living HEK293 cells; full-length Rluc donor (plasmid constant, 0.75 ng/mL) with increasing full-length eYFP acceptor plasmid; HBSS, coelenterazine H 5 µM, 37 °C; details: partners not purified
[4] = molecular target: the molecule itself; test: as above
[5] = molecular target: B1; test: as above; details: partners not purified

Row | Molecule | BRET50 [1] | BRET50 [2] | BRET50 (TM sequence of IL-10Rα) | BRET50 (TM sequence of IL-10Rβ) | BRET50 [4] | further results
1 | TM sequence of IL-10Rβ (domain or fragment) | 35 mBu | 35 mBu | 141 mBu | 78 mBu |  | 
2 | TM sequence of IL-10Rα (domain or fragment) | 28 mBu | 22 mBu | 190 mBu | 109 mBu |  | 
3 | TM sequence of IL-10Rα with leucine 248 substituted by glycine (domain or fragment) |  |  |  |  |  | decrease of BRET50 against the wild-type TM homodimer (TM sequence of IL-10Rα): 27 % decrease
4 | B1 |  |  |  |  | 28 mBu | BRET50 [3]: 28 mBu
5 | B2 |  |  |  |  | 152 mBu | BRET50 [5]: 86 mBu
